Experimental data taken from the supplement of paper PMC7125110.
± gives the standard error. For part of these data: This sample holds only a part of the variants without activity.

B1: glmS ribozyme (parent)
chain: AUAAAAGCGCCAGAACUACAGAAAUGUAGUUGACGAGGAGGAGGUUUAUCGAAUUUUCGGCGGAUGCCUCCAAA

Assays:
Details in all cases: with glucosamine-6-phosphate
glucosamine-6-phosphate [1] = variants of: B1; experiment: kcat; higher = faster cleavage; RNA array
Summary of the method: (§1)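 kobs was derived by fitting per-tile medians to one- or two-exponential decays after normalising signals to baseline and to non-cleaving reference variants. Those signals came from barcoded ribozyme variants transcribed in situ by E. coli RNA polymerase on sequenced MiSeq chips, followed through a hybridised Cy3 probe at 37 °C and imaged over ~14 h. Glucosamine-6-phosphate (40 μM to 10 mM) in HEPES/KCl/Mg(OAc)2 buffer was flowed in. Weighted Michaelis–Menten fits across concentrations then gave kcat and KM.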

glucosamine-6-phosphate [2] = variants of: B1; experiment: self-cleavage kobs at 160 uM GlcN6P; higher = faster cleavage; RNA array
Summary of the method: as §1

glucosamine-6-phosphate [3] = variants of: B1; experiment: self-cleavage kobs at 640 uM GlcN6P; higher = faster cleavage; RNA array
Summary of the method: as §1

glucosamine-6-phosphate [4] = variants of: B1; experiment: self-cleavage kobs at 2500 uM GlcN6P; higher = faster cleavage; RNA array
Summary of the method: as §1

glucosamine-6-phosphate [5] = variants of: B1; experiment: self-cleavage kobs at 10000 uM GlcN6P; higher = faster cleavage; RNA array
Summary of the method: as §1

glucosamine-6-phosphate [6] = variants of: B1; experiment: self-cleavage kobs at 40 uM GlcN6P; higher = faster cleavage; RNA array
Summary of the method: as §1

glucosamine-6-phosphate [7] = variants of: B1; experiment: KM; higher = weaker cofactor use; RNA array
Summary of the method: as §1

C68G C71U
kcat (glucosamine-6-phosphate [1]): < 1e-05 s⁻¹

U69A C71U
kcat (glucosamine-6-phosphate [1]): 7.42e-05 ± 1.9e-05 s⁻¹
self-cleavage kobs at 160 uM GlcN6P (glucosamine-6-phosphate [2]): 3.69e-05 ± 1.3e-05 s⁻¹
self-cleavage kobs at 640 uM GlcN6P (glucosamine-6-phosphate [3]): 9.28e-05 ± 1.6e-05 s⁻¹
self-cleavage kobs at 2500 uM GlcN6P (glucosamine-6-phosphate [4]): 8.39e-05 ± 1.6e-05 s⁻¹
self-cleavage kobs at 10000 uM GlcN6P (glucosamine-6-phosphate [5]): 4.27e-05 ± 1.7e-05 s⁻¹

G66C U69C
kcat (glucosamine-6-phosphate [1]): 0.000157 ± 7.2e-05 s⁻¹
self-cleavage kobs at 640 uM GlcN6P (glucosamine-6-phosphate [3]): 7.5e-05 ± 2.8e-05 s⁻¹
self-cleavage kobs at 2500 uM GlcN6P (glucosamine-6-phosphate [4]): 6.79e-05 ± 1.5e-05 s⁻¹
self-cleavage kobs at 10000 uM GlcN6P (glucosamine-6-phosphate [5]): 0.000137 ± 2.8e-05 s⁻¹

C10U C71G
kcat (glucosamine-6-phosphate [1]): 1.65e-05 ± 5.1e-06 s⁻¹
self-cleavage kobs at 40 uM GlcN6P (glucosamine-6-phosphate [6]): < 1e-05 s⁻¹

U47G U57C
kcat (glucosamine-6-phosphate [1]): 0.000206 ± 2.4e-05 s⁻¹
KM (glucosamine-6-phosphate [7]): 6.43 ± 1.5 mM
self-cleavage kobs at 2500 uM GlcN6P (glucosamine-6-phosphate [4]): 5.65e-05 ± 1.2e-05 s⁻¹
self-cleavage kobs at 10000 uM GlcN6P (glucosamine-6-phosphate [5]): 0.000126 ± 1.3e-05 s⁻¹

C16G U54C
kcat (glucosamine-6-phosphate [1]): 0.00528 ± 0.0015 s⁻¹
KM (glucosamine-6-phosphate [7]): 3.35 ± 1.4 mM
self-cleavage kobs at 40 uM GlcN6P (glucosamine-6-phosphate [6]): 9.28e-05 ± 1.6e-05 s⁻¹
self-cleavage kobs at 160 uM GlcN6P (glucosamine-6-phosphate [2]): 0.000157 ± 5.6e-05 s⁻¹
self-cleavage kobs at 640 uM GlcN6P (glucosamine-6-phosphate [3]): 0.000745 ± 0.00019 s⁻¹
self-cleavage kobs at 2500 uM GlcN6P (glucosamine-6-phosphate [4]): 0.00247 ± 0.00064 s⁻¹
self-cleavage kobs at 10000 uM GlcN6P (glucosamine-6-phosphate [5]): 0.00397 ± 0.00058 s⁻¹

A14C U54C
kcat (glucosamine-6-phosphate [1]): 0.00767 ± 0.0019 s⁻¹
KM (glucosamine-6-phosphate [7]): 3.55 ± 1.1 mM
self-cleavage kobs at 40 uM GlcN6P (glucosamine-6-phosphate [6]): 0.000111 ± 1.2e-05 s⁻¹
self-cleavage kobs at 160 uM GlcN6P (glucosamine-6-phosphate [2]): 0.000296 ± 4.4e-05 s⁻¹
self-cleavage kobs at 640 uM GlcN6P (glucosamine-6-phosphate [3]): 0.000989 ± 0.00014 s⁻¹
self-cleavage kobs at 2500 uM GlcN6P (glucosamine-6-phosphate [4]): 0.00305 ± 0.00048 s⁻¹
self-cleavage kobs at 10000 uM GlcN6P (glucosamine-6-phosphate [5]): 0.00592 ± 0.00066 s⁻¹

C10A G51U C68G
kcat (glucosamine-6-phosphate [1]): 4.94e-05 ± 1.5e-05 s⁻¹
self-cleavage kobs at 40 uM GlcN6P (glucosamine-6-phosphate [6]): 3.72e-05 ± 1.7e-05 s⁻¹
self-cleavage kobs at 160 uM GlcN6P (glucosamine-6-phosphate [2]): 5.32e-05 ± 2.5e-05 s⁻¹
self-cleavage kobs at 640 uM GlcN6P (glucosamine-6-phosphate [3]): 9.82e-05 ± 3.2e-05 s⁻¹
self-cleavage kobs at 10000 uM GlcN6P (glucosamine-6-phosphate [5]): 3.4e-05 ± 1.6e-05 s⁻¹

G29U U46C
kcat (glucosamine-6-phosphate [1]): 0.000262 ± 1.5e-05 s⁻¹
KM (glucosamine-6-phosphate [7]): 1.09 ± 0.14 mM
self-cleavage kobs at 160 uM GlcN6P (glucosamine-6-phosphate [2]): 3.52e-05 ± 1.6e-05 s⁻¹
self-cleavage kobs at 640 uM GlcN6P (glucosamine-6-phosphate [3]): 9.83e-05 ± 1.4e-05 s⁻¹
self-cleavage kobs at 2500 uM GlcN6P (glucosamine-6-phosphate [4]): 0.000156 ± 4.3e-05 s⁻¹
self-cleavage kobs at 10000 uM GlcN6P (glucosamine-6-phosphate [5]): 0.000242 ± 2.9e-05 s⁻¹

A39G U65A
kcat (glucosamine-6-phosphate [1]): 0.0108 ± 0.0047 s⁻¹
self-cleavage kobs at 40 uM GlcN6P (glucosamine-6-phosphate [6]): 0.000266 ± 6.6e-05 s⁻¹
self-cleavage kobs at 640 uM GlcN6P (glucosamine-6-phosphate [3]): 0.00201 ± 0.00056 s⁻¹
self-cleavage kobs at 2500 uM GlcN6P (glucosamine-6-phosphate [4]): 0.00741 ± 0.0031 s⁻¹
self-cleavage kobs at 10000 uM GlcN6P (glucosamine-6-phosphate [5]): 0.00966 ± 0.0034 s⁻¹

A12U U65A
kcat (glucosamine-6-phosphate [1]): 0.0089 ± 0.0024 s⁻¹
KM (glucosamine-6-phosphate [7]): 2.46 ± 0.84 mM
self-cleavage kobs at 40 uM GlcN6P (glucosamine-6-phosphate [6]): 0.000192 ± 2.4e-05 s⁻¹
self-cleavage kobs at 160 uM GlcN6P (glucosamine-6-phosphate [2]): 0.000483 ± 5.8e-05 s⁻¹
self-cleavage kobs at 640 uM GlcN6P (glucosamine-6-phosphate [3]): 0.00176 ± 0.00027 s⁻¹
self-cleavage kobs at 2500 uM GlcN6P (glucosamine-6-phosphate [4]): 0.00391 ± 0.00071 s⁻¹
self-cleavage kobs at 10000 uM GlcN6P (glucosamine-6-phosphate [5]): 0.00799 ± 0.0012 s⁻¹

A39U G62A
kcat (glucosamine-6-phosphate [1]): < 1e-05 s⁻¹
self-cleavage kobs at 40 uM GlcN6P (glucosamine-6-phosphate [6]): < 1e-05 s⁻¹
self-cleavage kobs at 160 uM GlcN6P (glucosamine-6-phosphate [2]): < 1e-05 s⁻¹
self-cleavage kobs at 640 uM GlcN6P (glucosamine-6-phosphate [3]): < 1e-05 s⁻¹

U45A A53C
kcat (glucosamine-6-phosphate [1]): 0.0341 ± 0.0078 s⁻¹
KM (glucosamine-6-phosphate [7]): 3.16 ± 0.86 mM
self-cleavage kobs at 40 uM GlcN6P (glucosamine-6-phosphate [6]): 0.000466 ± 8.3e-05 s⁻¹
self-cleavage kobs at 160 uM GlcN6P (glucosamine-6-phosphate [2]): 0.00139 ± 0.00027 s⁻¹
self-cleavage kobs at 640 uM GlcN6P (glucosamine-6-phosphate [3]): 0.00608 ± 0.00081 s⁻¹
self-cleavage kobs at 2500 uM GlcN6P (glucosamine-6-phosphate [4]): 0.017 ± 0.0047 s⁻¹
self-cleavage kobs at 10000 uM GlcN6P (glucosamine-6-phosphate [5]): 0.0239 ± 0.0068 s⁻¹

U31G A36C C70G
kcat (glucosamine-6-phosphate [1]): 7.04e-05 ± 3.2e-05 s⁻¹
self-cleavage kobs at 640 uM GlcN6P (glucosamine-6-phosphate [3]): 0.000105 ± 4.3e-05 s⁻¹

A52U U65C
kcat (glucosamine-6-phosphate [1]): < 1e-05 s⁻¹
self-cleavage kobs at 40 uM GlcN6P (glucosamine-6-phosphate [6]): < 1e-05 s⁻¹

U31C A42U
kcat (glucosamine-6-phosphate [1]): 1.58e-05 ± 4.1e-06 s⁻¹
self-cleavage kobs at 40 uM GlcN6P (glucosamine-6-phosphate [6]): < 1e-05 s⁻¹
self-cleavage kobs at 160 uM GlcN6P (glucosamine-6-phosphate [2]): < 1e-05 s⁻¹

C58G U65G
kcat (glucosamine-6-phosphate [1]): < 1e-05 s⁻¹
